The assay deals with microtubules (polymerized porcine tubulin) (porcine) (UniProt P02550). Nature of the assay: co-sedimentation; purified MTBDs (1-32 uM) mixed with 5 uM paclitaxel-stabilised porcine MTs; 100 mM PIPES pH 6.8, 50 mM NaCl, 2 mM MgCl2, 1 mM EGTA; 210,000 x g, 25 °C, 10 min; pellets on SDS-PAGE, densitometry, one-site curve fitting.

Here are results for one substance from PMC7042235.

“MTBD-WT (microtubule-binding domain of yeast cytoplasmic dynein, K3096-E3232) (from UniProt P36022 3096-3232) (domain or fragment)” registered a Kd of 6.7 µM.
